Results taken from patent US20240139371A1, “NEW ANTIMICROBIAL AND ANTITHROMBOGENIC MEDICAL DEVICE” (UNIVERSITÉ DE LIÈGE, priority 2021, published 2024).

Tested on: human platelets
Experiment: Platelet adhesion assay (pNPP test)
Assay type: cell-based
Settings: human citrated PRP 45 min at 37° C.; PU = Carbothane PC3585A; PPG 468 and 728; fibrinogen-coated wells positive control; FIG. 10
Experimental: • Blood collection tubes: sodium citrate Vacutainer tubes (3.2% citrate, BD Biosciences) • Non-binding 24-well and 96-well plates for suspension culture (polystyrene, Greiner Bio-One) • Spectrophotometer Spectra max PLUS 384 (Molecular Devices) • Human Fibrinogen ref 341576 (Calbiochem) • 2×pNPP buffer (0.1M citrate buffer pH5.4, 10 mM p-nitrophenylphosphate, 2% Triton X-100)
Platelet adhesion on surfaces is analysed by using the p-NitroPhenil Phosphate (pNPP) test. Values obtained with this test are directly proportional to the number of platelets adhering to the surface. The pNPP test measures the levels of alkaline and acid phosphatases released upon platelet lysis. The hydrolysis of pNPP, a substrate of these phosphatases, produces p-nitrophenol, which has a maximal absorbance at 405 nm and is proportional to the amount of platelets bound to the surface. • 1. […] 100 μl is transferred in a 96-well plate before measuring the absorbance at 405 nm in a spectrophotometer. • 10. Background readings from the PPP incubation is subtracted from the PRP reads. • 11. Numbers of platelets are determined from a calibration curve performed with increasing platelet densities. e. […]
Platelet adhesion was analysed by using the p-NitroPhenil Phosphate (pNPP) assay as described in the protocol of testing of example 10 at point b

## fibrinogen
  human platelet adhesion: adhesion was observed
